The results in this text go back to IntAct's records for PubMed 18007658.

B1: Protein SLY1 (Saccharomyces cerevisiae), P22213 (parent)
chain: MAVEEIASRKDISLRDMQISAILKMLFLNKDLNNNDNITTITDDIFNQQEIIWKVLILDIKSTATISSVLRVNDLLKAGITVHSLIKQDRSPLPDVPAIYFVSPTKENIDIIVNDLKSDKYSEFYINFTSSLPRNLLEDLAQQVSITGKSDKIKQVYDQYLDFIVTEPELFSLEISNAYLTLNDPKTTEEEITGLCANIADGLFNTVLTINSIPIIRAAKGGPAEIIAEKLGTKLRDFVINTNSSSTSTLQGNDSLERGVLIILDRNIDFASMFSHSWIYQCMVFDIFKLSRNTVTIPLESKENGTDNTTAKPLATKKYDIEPNDFFWMENSHLPFPEAAENVEAALNTYKEEAAEITRKTGVTNISDLDPNSNNDTVQIQEVVKKLPELTAKKNTIDTHMNIFAALLSQLESKSLDTFFEVEQDPGSTKTRSRFLDILKDGKTNNLEDKLRSFIVLYLTSTTGLPKDFVQNVENYFKENDYDINALKYVYKLREFMQLSNMSLQNKSLEDGSDSAFKPSNLTLSGIYGLTEGKLQGGVGSLISGIKKLLPEKKTIPITNVVDAIMDPLNSSQKNLETTDSYLYIDPKITRGSHTRKPKRQSYNKSLVFVVGGGNYLEYQNLQEWAHSQLHNPKKVMYGSTAITTPAEFLNEISRLGASNSSNNDA
partner: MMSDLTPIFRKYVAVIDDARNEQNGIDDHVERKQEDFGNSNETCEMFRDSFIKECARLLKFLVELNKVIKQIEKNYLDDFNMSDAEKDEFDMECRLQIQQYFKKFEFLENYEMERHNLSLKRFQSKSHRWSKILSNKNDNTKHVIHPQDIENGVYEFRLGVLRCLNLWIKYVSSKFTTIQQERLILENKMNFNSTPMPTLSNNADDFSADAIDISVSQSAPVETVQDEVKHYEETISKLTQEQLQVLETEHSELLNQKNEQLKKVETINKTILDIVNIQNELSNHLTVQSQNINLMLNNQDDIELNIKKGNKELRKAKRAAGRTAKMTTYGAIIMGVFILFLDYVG
B2: Syntaxin UFE1 (Saccharomyces cerevisiae), P41834 (parent)
chain: B1 partner
partner: B1 chain

The variants in one assay derive from B1. Particulars: with ufe1_yeast UFE1, P41834.
As to L137R, the “effect of a mutation on the interaction” value was “disrupting interaction”.

Variants of B1 are the subject of a further assay. Particulars: with ufe1_yeast UFE1, P41834. The source holds these as a separate data set.
For L137R, the “effect of a mutation on the interaction” value was “decreasing interaction”.

Variants of B2 are the subject of another assay. Particulars: with sly1_yeast SLY1, P22213.
Take MMSDLTPIARKYVAVIDDARNEQNGIDDHVERKQEDFGNSNETCEMFRDSFIKECARLLKFLVELNKVIKQIEKNYLDDFNMSDAEKDEFDMECRLQIQQYFKKFEFLENYEMERHNLSLKRFQSKSHRWSKILSNKNDNTKHVIHPQDIENGVYEFRLGVLRCLNLWIKYVSSKFTTIQQERLILENKMNFNSTPMPTLSNNADDFSADAIDISVSQSAPVETVQDEVKHYEETISKLTQEQLQVLETEHSELLNQKNEQLKKVETINKTILDIVNIQNELSNHLTVQSQNINLMLNNQDDIELNIKKGNKELRKAKRAAGRTAKMTTYGAIIMGVFILFLDYVG [F9A]: the “effect of a mutation on the interaction” value is recorded as “disrupting interaction”.
